Target: GST-fused GAS41 YEATS domain (residues 1-148) (human, UniProt O95619 1-148)
Experiment: fluorescence polarisation

GST-fused GAS41 YEATS domain (residues 1-148), sequence (O95619 1-148): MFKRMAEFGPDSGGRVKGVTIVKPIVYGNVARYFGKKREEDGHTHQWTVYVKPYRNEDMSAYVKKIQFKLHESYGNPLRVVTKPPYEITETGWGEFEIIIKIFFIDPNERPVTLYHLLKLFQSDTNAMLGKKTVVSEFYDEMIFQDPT

IC50: 50 µM
Binder: GGKAPRKQLATKAARKSAP (N-terminal acetyl; acetyl-lysine at K18 and K27; C-terminal amide) [H3K18acK27ac peptide]
